{"source": "FireProtDB", "key": {"[1]": {"details": "Saccharomyces cerevisiae (strain ATCC 204508 / S288c), pH 6, 46.5 °C, Thermal, Absorbance, Sodium phosphate 100 mM, reversible: yes, structure 1YCC"}, "[2]": {"details": "Saccharomyces cerevisiae (strain ATCC 204508 / S288c), pH 6, Thermal, Absorbance, Sodium phosphate 100 mM, reversible: yes, structure 1YCC"}, "[3]": {"details": "Homo sapiens, pH 7.4, Thermal, CD, phosphate 10 mM, NaCl 10 mM, transition: 2, structure 2NLU"}, "[4]": {"details": "Gallus gallus, pH 7, 25 °C, NaClO4 titration, CD, PIPES 10 mM, NaCl 50 mM, reversible: no"}, "[5]": {"details": "Saccharomyces cerevisiae (strain ATCC 204508 / S288c), pH 7.5, 22 °C, GdnHCl, CD, Tris 20 mM, NaCl 40 mM, structure 1YCC"}, "[6]": {"details": "Escherichia coli (strain K12), pH 7.5, Thermal, CD, Potassium phosphate 10 mM, reversible: yes, structure 1EZA"}, "[7]": {"details": "Escherichia coli (strain K12), pH 7.5, Thermal, DSC, Potassium phosphate 10 mM, reversible: yes, structure 1EZA"}, "[8]": {"details": "Escherichia coli (strain K12), pH 7.4, Thermal, DSC, HEPES 50 mM, structure 1ANK"}}, "note": "“And” between values parts separate entries of the source, which are not always exact repeats. Equal entries are not always repeated.", "data": [{"substance": "Tropomyosin alpha-1 chain wild type, P04268", "values": [{"measurement": "unfolding free energy", "setting": "Gallus gallus, pH 7, 39 °C, Thermal, CD, Sodium phosphate 10 mM, NaCl 0.5 M, reversible: yes", "result": "37.7 kJ/mol and 51.9 kJ/mol and 40.2 kJ/mol"}, {"measurement": "unfolding enthalpy (van 't Hoff)", "setting": "Gallus gallus, pH 7, Thermal, CD, Sodium phosphate 10 mM, NaCl 0.5 M, reversible: yes", "result": "678 kJ/mol and 941 kJ/mol and 410 kJ/mol"}]}, {"substance": "Cytochrome c isoform 1 N58G|C108A, P00044 N58G C108A", "values": [{"measurement": "ddG of mutation (higher = less stable)", "setting": "[1]", "result": -3.77, "unit": "kJ/mol"}, {"measurement": "heat capacity change of unfolding", "setting": "[1]", "result": 2, "unit": "kcal/mol/K"}, {"measurement": "Tm", "setting": "[2]", "result": 50.1, "unit": "°C"}, {"measurement": "change of melting temperature, mutant - wild type (higher = more stable)", "setting": "[2]", "result": 3.6, "unit": "°C"}, {"measurement": "heat capacity change of unfolding", "setting": "[2]", "result": 2, "unit": "kcal/mol/K"}, {"measurement": "unfolding enthalpy (van 't Hoff)", "setting": "[2]", "result": 209, "unit": "kJ/mol"}]}, {"substance": "Hepatoma-derived growth factor P24A, P51858", "values": [{"measurement": "Tm", "setting": "[3]", "result": 40, "unit": "°C"}, {"measurement": "change of melting temperature, mutant - wild type (higher = more stable)", "setting": "[3]", "result": -7, "unit": "°C"}]}, {"substance": "Cytochrome c V93A|S104A, P67881 V93A S104A", "values": [{"measurement": "ddG of mutation (higher = less stable)", "setting": "[4]", "result": 1.09, "unit": "kJ/mol"}, {"measurement": "unfolding free energy", "setting": "[4]", "result": 20.5, "unit": "kJ/mol"}]}, {"substance": "Cytochrome c isoform 1 H32N|H39N|H45Q|C108S, P00044 H32N H39N H45Q C108S", "values": [{"measurement": "ddG of mutation (higher = less stable)", "setting": "[5]", "result": 4.39, "unit": "kJ/mol"}, {"measurement": "denaturant m value", "setting": "[5]", "result": 3.83, "unit": "kcal/mol/M"}, {"measurement": "denaturant midpoint (higher = more stable)", "setting": "[5]", "result": 1.04, "unit": "M"}, {"measurement": "unfolding free energy", "setting": "[5]", "result": 16.7, "unit": "kJ/mol"}]}, {"substance": "Phosphoenolpyruvate-protein phosphotransferase H189A, P08839", "values": [{"measurement": "Tm", "setting": "[6]", "result": 54, "unit": "°C"}, {"measurement": "unfolding enthalpy (van 't Hoff)", "setting": "[6]", "result": 494, "unit": "kJ/mol"}, {"measurement": "Tm", "setting": "[7]", "result": 55.8, "unit": "°C"}, {"measurement": "unfolding enthalpy (calorimetric)", "setting": "[7]", "result": 598, "unit": "kJ/mol"}]}, {"substance": "Adenylate kinase R88G, P69441", "values": [{"measurement": "ddG of mutation (higher = less stable)", "setting": "Escherichia coli (strain K12), pH 7.4, 51.8 °C, Thermal, DSC, HEPES 50 mM, structure 1ANK", "result": 0.837, "unit": "kJ/mol"}, {"measurement": "Tm", "setting": "[8]", "result": 51, "unit": "°C"}, {"measurement": "change of melting temperature, mutant - wild type (higher = more stable)", "setting": "[8]", "result": -0.8, "unit": "°C"}, {"measurement": "unfolding enthalpy (calorimetric)", "setting": "[8]", "result": 314, "unit": "kJ/mol"}, {"measurement": "unfolding enthalpy (van 't Hoff)", "setting": "[8]", "result": 674, "unit": "kJ/mol"}]}]}
